This passage reports fraction ligated results from the supplement of paper PMC6755084.

This data set has as its system F1*sub RNA substrate (template-directed ligation). Briefly: fraction ligated after 30 min (ligated reads / total reads); higher = more ligase activity; sequences stand for … in GAGACCGCAACTGAAAAGTTGT…AGTTCTGCACGTAGAAGCAAAAGGC
The note with it: 42 °C. Here is the method: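 Chip-synthesised pool of F1* ligase ribozyme variants (all single and double substitutions, single, double and triple deletions in the catalytic core and GAA bulge, plus designed variants) was transcribed with T7 and reacted as a pool with excess substrate F1*sub for 30 min at 42 C in 50 mM EPPS pH 8.5, 25 mM MgCl2. Ligated and unligated bands were separated by PAGE, barcoded by RT and deep sequenced; fraction ligated = ligated reads / total reads per variant, relative activity = FL / FL of wild type (0.826). Sequences are the DNA template of the ribozyme.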
“TATCACTTGTCGTAAGAACTTTGGGGGTTGA [3d2172]”: the fraction ligated was found to be 0.0507.
Turning to “TATCACTTGTCGTAAGACACTTTGATGGGTTG [2d288]”, the fraction ligated is 0.755.
As for “TATCACTTGCGTAAACACTTTGGATGGGTTA [3d1647]”, the figure is 0.777; as for TACATTGTCGTAAGACACTTTGGATGGGTTG [3d565], 0.163.
For the sequence ATCACTTGTCGTAAACACTTTGGATGGGTTA [3d219], the fraction ligated amounted to 0.54.
As for TAACTTGTCGAAGACACTTTGGATGGGTTGA [3d514], the fraction ligated came to 0.112.
“TATCACTTGTCGTAAAACTTTGGATGGGTTG [3d2066]” registered a fraction ligated of 0.791.
As to TACACTTGTCGTAAGACATTTGGATGGGTTA [3d712], the fraction ligated came out at 0.0725.
To “TATCACTTGTGTAAGAATTTGGATGGGTTGA [3d1764]” belongs 0.863; to TACACTTGTCTAAACACTTTGGATGGGTTGA [3d634], 0.177.
To TTCACTTGCGTAAGACACTTGGATGGGTTGA [3d380] belongs 0.182; to “TATCCTTGTCGTAAGACACTTTGGATGGGTT [3d1119]”, 0.0366; to TACACTTGTCGTAAGCACTTTGGATGGGTTGA [2d58], 0.183.
“TATCACTTGTCGTAAGACCTTTGATGGTTGA [3d2193]” yielded a fraction ligated of 0.0397.
“TATCACTTGTGAAGACACTTTGGATGGGTTG [3d1730]” showed a fraction ligated of 0.854.
Take “TATCACTTGTCGTAAGAACTTTGATGGTTGA [3d2169]”: the fraction ligated stood at 0.0458.
To “TATCACTTTCGTAAACACTTGGATGGGTTGA [3d1522]” belongs 0.778; to TTCCTTGTCGTAAGACACTTTGGAGGGTTGA [3d313], 0.186.
Sequence “TATCACTTGTCGAAACACTTGGATGGGTTGA [3d1918]” yielded a fraction ligated of 0.776.
In turn, “TATCACTTGCGTAGCACTTTGGATGGGTTGA [3d1628]” showed a fraction ligated of 0.859.
Consider “TATCACTTGTCGTAAGACACTTGGATGGGTTA [2d281]”, for which the fraction ligated amounted to 0.756.
As for “TATCACTTGTCGAAGCCTTTGGATGGGTTGA [3d1926]”, the figure is 0.757.
As for “TATCACTTGTCGTAAGCACTTTGGAGGGTTGA [2d250]”, the figure is 0.157; as for “TATCACTGTCGAAGACACTTTGGTGGGTTGA [3d1380]”, 0.369; as for “TATCCTTGTGTAAGACACTTTGGTGGGTTGA [3d1010]”, 0.062.
As for TATACTGTCGTAAGACACTTGGATGGGTTGA [3d789], the fraction ligated was 0.803.
“TATCCTTGTCGAAGACACTTGGATGGGTTGA [3d1035]” yielded a fraction ligated of 0.775.
On to “TATCACTGTCGTAAGAATTTGGATGGGTTGA [3d1418]”, for which the fraction ligated was 0.804.
In the case of TTCACTTGTCGTAAGCACTTTGGATGGTTGA [3d459], the fraction ligated stood at 0.164.
The sequence “TATCACTGTCGTAGACACTTTGATGGGTTGA [3d1392]” registered a fraction ligated of 0.787.
For the sequence “TATCACTTGTCGTAAGACACTTTGGGGTTGA [3d2260]”, the fraction ligated worked out at 0.0415.
The sequence “TATCATTGTCGTAAGACATTTGGATGGTTGA [3d1266]” gave a fraction ligated of 0.567.
With TCACTTGTCGTAAGAACTTTGGATGGGTTGA [3d14], the fraction ligated was 0.399.
As for “TATCCTTGTCGTAAGACACTTTGGATGGGTTG [2d108]”, the figure is 0.781; as for “TATCACTTGTCGTAAGACATTTGTGGGTTGA [3d2215]”, 0.00941.
As for “TATCACTTGTCGTAAACCTTGGATGGGTTGA [3d2067]”, the figure is 0.783.
In the case of ATACTTGTCGTAAGACCTTTGGATGGGTTGA [3d58], the fraction ligated came out at 0.412.
For TATCCTTGCGTAAGACACTTGGATGGGTTGA [3d993], the fraction ligated is 0.75.
The sequence TATACTTGTCGTAAGACACTTTGATGGTTGA [3d935] gave a fraction ligated of 0.0546.
Sequence “TATCACTTGGTAAACACTTTGGATGGGTTGA [3d1587]” returned a fraction ligated of 0.826.
As for TTCACTTGTCGTAAGAACTTGGATGGGTTGA [3d463], the figure is 0.226; as for “TATCATTTCGTAAGAACTTTGGATGGGTTGA [3d1146]”, 0.857.
In turn, “TATCACTGTCGTAAGACACTTGATGGGTTGA [3d1441]” registered a fraction ligated of 0.77.
As for “TATCCTTGTGTAAGACACTTTGGAGGGTTGA [3d1011]”, the figure is 0.0114.
Regarding “TATCCTTGTCGTAAACATTTGGATGGGTTGA [3d1057]”, the fraction ligated is 0.771.
To “TATCACTGTCGTAAGACACTTTGGGGGTTGA [3d1453]” belongs 0.0319.
For “TATCACTTGCGTAAGACCTTTGGATGGTTGA [3d1671]”, the fraction ligated was 0.176.
In the case of ACACTTGTCGTAAGACATTTGGATGGGTTGA [3d38], the fraction ligated turned out to be 0.484.
As for “TATCACTTTGTAAGACACTTTGGATGGGTTA [3d1477]”, the figure is 0.776; as for “TATCACTTGTCGTAAGAATTTGGTGGGTTGA [3d2154]”, 0.135.
As for ATCACTTGTGTAAGACACTTTGGATGGGTTGA [2d9], the figure is 0.853; as for “TATCACTTGTCGTAAGACATTTGATGGGTTA [3d2218]”, 0.0152; as for TTCACTTCGTAAGACACTTTGGATGGGTTGA [3d337], 0.344.
To “TATCACTTTCGTAAGCACTTTGGATGGGTTG [3d1538]” belongs 0.764.
TATCCTGTGTAAGACACTTTGGATGGGTTGA [3d952] returned a fraction ligated of 0.791.
Sequence “TATCACTTGTCGTAAGAACTTGGATGGGTTA [3d2164]” came in with a fraction ligated of 0.404.
On to “TATCACTTGTCTGACACTTTGGATGGGTTGA [3d1823]”, for which the fraction ligated was 0.77.
TATACTTGTCGAAGCACTTTGGATGGGTTGA [3d859] registered a fraction ligated of 0.703.
In turn, TTCCTTGTCGTAGACACTTTGGATGGGTTGA [3d304] gave a fraction ligated of 0.77.
Sequence TTCACTTGTCGTAAACACTTTGATGGGTTGA [3d446] showed a fraction ligated of 0.0177.
As for ATCACTTGTCGTAAGCACTTTGGAGGGTTGA [3d227], the fraction ligated is 0.0599.
“TATCACTTTCGTAAGAATTTGGATGGGTTGA [3d1539]” gave a fraction ligated of 0.835.
For TATCCTTGTCTAAGACACTTTGGATGGGTTGA [2d94], the fraction ligated worked out at 0.798.
As to “TATCACTGTCGAAGCACTTTGGATGGGTTGA [3d1374]”, the fraction ligated was determined as 0.826.
In turn, “TATCACTTGTCGAAGACCTTTGGATGGGTTA [3d1948]” came in with a fraction ligated of 0.773.
Regarding “TATCCTTGTCGAAGACACTTTGGTGGGTTGA [3d1037]”, the fraction ligated was found to be 0.181.
Regarding “TATCATTGTCGTAAGAACTTTGGATGGGTTG [3d1254]”, the fraction ligated was 0.815.
In turn, “TATCACTTGTGTAAGACACTTTGAGGGTTGA [3d1795]” showed a fraction ligated of 0.0251.
As for “TATCACTGTCGTAAGACACTTGGATGGGTTA [3d1445]”, the figure is 0.775.
Turning to “TATCACTTGCTAAGACACTTGGATGGGTTGA [3d1606]”, the fraction ligated worked out at 0.782.
Take “TATCACTTGTCGTAAGCACTTTGGAGGGTTG [3d2147]”: the fraction ligated was found to be 0.116.
To TTCACTTGTCTAAGACACTTTGGTGGGTTGA [3d411] belongs 0.035; to TTCACTTGTCGTAAGACACTTTGATGGGTTGA [2d41], 0.553; to “TATCACGCGTAAGACACTTTGGATGGGTTGA [3d1294]”, 0.814.
As for TATACTTGTGTAAGACACTTGGATGGGTTGA [3d836], the fraction ligated was 0.756.
ATATTGTCGTAAGACACTTTGGATGGGTTGA [3d47] showed a fraction ligated of 0.0915.
In the case of “TATCACTTGGTAAGACATTTGGATGGGTTGA [3d1591]”, the fraction ligated worked out at 0.832.
As for TATCCTGTCGTAAGACACTTTGGATGGGTTA [3d966], the figure is 0.436; as for “TATCACTTTCTAAGACACTTTGGTGGGTTGA [3d1488]”, 0.101; as for TTCACTTGTCGTAGACACTTTGGAGGGTTGA [3d438], 0.149.
Sequence TTACTTTCGTAAGACACTTTGGATGGGTTGA [3d280] showed a fraction ligated of 0.0128.
TTCACTTGTCGTAAGACACTTTGGATGGGTTG [2d46] came in with a fraction ligated of 0.792.
Consider “TATCACTTGTGAAGACACTTTGGATGGGTTGA [2d180]”, for which the fraction ligated turned out to be 0.853.
As for “TATCACTTGTCGTAAACCTTTGGTGGGTTGA [3d2069]”, the fraction ligated came to 0.182.
To ATCATTGTCGAAGACACTTTGGATGGGTTGA [3d91] belongs 0.728.
Sequence “TATCACTTGTCGAGACACTTTGGATGGGTTG [3d1914]” had a fraction ligated of 0.797.
TTCACTTGTCGTAAGACCTTTGGTGGGTTGA [3d472]: the fraction ligated stood at 0.0157.
As to “TATCACTTGTCGTAAGCACTTTATGGGTTGA [3d2135]”, the fraction ligated was found to be 0.134.
As for “TATCACTTGGTAAGACACTTGGATGGGTTGA [3d1592]”, the figure is 0.795.
The sequence “TATCACTTTCAAGACACTTTGGATGGGTTGA [3d1479]” gave a fraction ligated of 0.772.
For TTCATTGTGTAAGACACTTTGGATGGGTTGA [3d320], the fraction ligated turned out to be 0.137.
“TATCACTTTCGTGACACTTTGGATGGGTTGA [3d1506]”: the fraction ligated turned out to be 0.813.
In turn, “TATCCTTGTCAAGACACTTTGGATGGGTTGA [3d1015]” gave a fraction ligated of 0.791.
On to TTCATTGTCGTAAGACACTTTGGATGGTTGA [3d333], for which the fraction ligated was 0.421.
